Laboratory results published in publication PMC6503924.

Molecular target: Todarodes pacificus hemocyanin (Todarodes pacificus)
Assay: cryo-EM structure; single-particle cryo-EM of purified hemocyanin, 2.9 mg/ml, 100 mM HEPES pH 7.5, 200 mM CaCl2; asymmetric refinement (no symmetry imposed), overall 5.1 Å; model by rigid-body fitting

- stoichiometry N: 10
Substance: Todarodes pacificus hemocyanin (natural protein)
